The source of these data is PMC2747274, “Structural Studies of a Four-MBT Repeat Protein MBTD1” (PLoS ONE, 2009).

For the experiment, the target named is T1, human L3MBTL1 R467C mutant containing 3 MBT repeats (residues 200-522, 3MBT) (human).
T1 construct: also called L3MBTL1 Arg467Cys mutant; source: expressed and purified as previously described [20]
The experiment in a line: ITC; L3MBTL1 R467C mutant titrated with H4K20me2; data not shown. Conditions: both partners purified. In general terms: Isothermal titration calorimetry measures the heat released or taken up as one component is titrated into another.

Where no end group is shown, it is not given here.

In the case of RHRK(dimethyl)VLRDN [H4K20me2 peptide (used for co-crystallisation and ITC with L3MBTL1 R467C)], the “stoichiometry N” value was 1.

In general, stoichiometry N refers to the number of molecules, sites or subunits per partner or assembly.
